For the assay, the target named is Recombinant human Pentraxin 3 (PTX3) (human) (UniProt P26022). Kind of assay: ELISA. For orientation: In an ELISA, binding on a coated surface is turned into a signal by an enzyme label.
Chain of UniProt P26022 (P26022 18-381): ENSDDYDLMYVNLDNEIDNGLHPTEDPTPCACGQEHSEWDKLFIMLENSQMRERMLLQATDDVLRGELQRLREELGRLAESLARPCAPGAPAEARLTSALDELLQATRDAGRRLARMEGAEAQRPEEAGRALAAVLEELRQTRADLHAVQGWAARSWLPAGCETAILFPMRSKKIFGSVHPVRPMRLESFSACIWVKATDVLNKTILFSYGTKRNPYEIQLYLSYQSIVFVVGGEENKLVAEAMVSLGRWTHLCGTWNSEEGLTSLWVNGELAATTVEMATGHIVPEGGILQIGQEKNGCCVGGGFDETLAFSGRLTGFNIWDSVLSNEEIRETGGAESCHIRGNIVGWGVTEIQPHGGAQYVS

In the case of “Human TSP1 construct E123CaG-1 (type II repeats plus type III repeats and globular C-terminus) (domain or fragment)”, the increase of OD 450 nm over control buffer (% fold increase) is 64.

The record behind these values is paper PMC6315291.
